Read-outs that look alike come from different tables or passages of the source.
Columns and labels:
[1] = target: WT PolC CBM peptide (QLSLF) with flanking amino acids from PolC, fluorescein-labelled (B. subtilis); test: fluorescence polarisation; direct binding: B. subtilis DnaN in 3-fold serial dilution from 50 μM, 20 nM fluorescein-labelled peptide; 20 mM Tris-HCl pH 7.5, 100 mM NaCl, 5 mM BME, 10% glycerol, 0.1% pluronic acid F-68; fit to a 1:1 binding model
[2] = target: PolC CBM sequence (QLSLF) peptide with the flanking amino acids from DnaE, fluorescein-labelled (B. subtilis); test: as above
[3] = target: WT PolC CBM peptide (QLSLF) with flanking amino acids from PolC, fluorescein-labelled (B. subtilis); test: as above; remark: listed apart in the source
[4] = target: Pol III alpha CBM (Escherichia coli); details: cited from earlier work

Substance: B. subtilis DnaN (sliding clamp), N-terminally His6-tagged (from UniProt P05649 1-378) (natural protein)
- Kd [1]: 3.9 µM
- Kd [2]: 7.2 µM
- Kd [3]: 3.8 µM

Substance: DnaN clamp (from UniProt P0A988)
- Kd [4]: 0.8 µM
